From the Human Domainome abundance scans (Beltran et al. 2025)
± gives the uncertainty stated by the source.

B1: Cullin-9, residues 2234 to 2275; numbered along this chain, Q8IWT3 (parent)
chain: KRCPSCQAPIEKNEGCLHMTCAKCNHGFCWRCLKSWKPNHKD

Variants of: B1
Experiment: abundance fitness (aPCA) (normalised: wild type 0, dead -1); higher = more abundant; growth selection in yeast, the domain comes from the species named
Details: Homo sapiens

Variant | abundance fitness
KRCPSCQAPIEKNEGCLHMTCAKCNHGFSWRCLKSWKPNHKD | -0.749 ± 0.12
KRCPSCQAPIEKNEGCLHMTCAKCNHGFVWRCLKSWKPNHKD | -0.969 ± 0.11
KRCPSCQAPIEKNEGCLHMTCAKCNHGFWWRCLKSWKPNHKD | -1.17 ± 0.17
KRCPSCQAPIEKNEGCLHMTCAKCNHGFYWRCLKSWKPNHKD | -0.847 ± 0.21
KRCPSCQAPIEKNEGCLHMTCAKCNHGFCCRCLKSWKPNHKD | -1.09 ± 0.24
KRCPSCQAPIEKNEGCLHMTCAKCNHGFCDRCLKSWKPNHKD | 0.019 ± 0.25
KRCPSCQAPIEKNEGCLHMTCAKCNHGFCERCLKSWKPNHKD | 0.016 ± 0.11
KRCPSCQAPIEKNEGCLHMTCAKCNHGFCFRCLKSWKPNHKD | -0.162 ± 0.14
KRCPSCQAPIEKNEGCLHMTCAKCNHGFCGRCLKSWKPNHKD | 0.162 ± 0.07
KRCPSCQAPIEKNEGCLHMTCAKCNHGFCHRCLKSWKPNHKD | -0.069 ± 0.21
KRCPSCQAPIEKNEGCLHMTCAKCNHGFCIRCLKSWKPNHKD | -0.258 ± 0.12
KRCPSCQAPIEKNEGCLHMTCAKCNHGFCKRCLKSWKPNHKD | -0.366 ± 0.15
KRCPSCQAPIEKNEGCLHMTCAKCNHGFCLRCLKSWKPNHKD | -0.156 ± 0.083
KRCPSCQAPIEKNEGCLHMTCAKCNHGFCMRCLKSWKPNHKD | -0.223 ± 0.12
KRCPSCQAPIEKNEGCLHMTCAKCNHGFCPRCLKSWKPNHKD | 0.134 ± 0.11
KRCPSCQAPIEKNEGCLHMTCAKCNHGFCQRCLKSWKPNHKD | -0.05 ± 0.12
KRCPSCQAPIEKNEGCLHMTCAKCNHGFCSRCLKSWKPNHKD | -0.101 ± 0.11
KRCPSCQAPIEKNEGCLHMTCAKCNHGFCVRCLKSWKPNHKD | -0.056 ± 0.085
KRCPSCQAPIEKNEGCLHMTCAKCNHGFCWACLKSWKPNHKD | -0.026 ± 0.076
KRCPSCQAPIEKNEGCLHMTCAKCNHGFCWCCLKSWKPNHKD | 0.055 ± 0.13

Variant | abundance fitness
KRCPSCQAPIEKNEGCLHMTCAKCNHGFCWDCLKSWKPNHKD | 0.119 ± 0.11
KRCPSCQAPIEKNEGCLHMTCAKCNHGFCWECLKSWKPNHKD | 0.162 ± 0.091
KRCPSCQAPIEKNEGCLHMTCAKCNHGFCWFCLKSWKPNHKD | -0.258 ± 0.14
KRCPSCQAPIEKNEGCLHMTCAKCNHGFCWGCLKSWKPNHKD | 0.128 ± 0.081
KRCPSCQAPIEKNEGCLHMTCAKCNHGFCWHCLKSWKPNHKD | 0.078 ± 0.15
KRCPSCQAPIEKNEGCLHMTCAKCNHGFCWICLKSWKPNHKD | -0.072 ± 0.17
KRCPSCQAPIEKNEGCLHMTCAKCNHGFCWKCLKSWKPNHKD | 0.371 ± 0.11
KRCPSCQAPIEKNEGCLHMTCAKCNHGFCWNCLKSWKPNHKD | 0.17 ± 0.17
KRCPSCQAPIEKNEGCLHMTCAKCNHGFCWPCLKSWKPNHKD | -0.17 ± 0.12
KRCPSCQAPIEKNEGCLHMTCAKCNHGFCWQCLKSWKPNHKD | 0.208 ± 0.11
KRCPSCQAPIEKNEGCLHMTCAKCNHGFCWSCLKSWKPNHKD | -0.065 ± 0.09
KRCPSCQAPIEKNEGCLHMTCAKCNHGFCWTCLKSWKPNHKD | 0.03 ± 0.11
KRCPSCQAPIEKNEGCLHMTCAKCNHGFCWVCLKSWKPNHKD | 0.128 ± 0.087
KRCPSCQAPIEKNEGCLHMTCAKCNHGFCWWCLKSWKPNHKD | -0.025 ± 0.096
KRCPSCQAPIEKNEGCLHMTCAKCNHGFCWYCLKSWKPNHKD | 0.212 ± 0.17
KRCPSCQAPIEKNEGCLHMTCAKCNHGFCWRALKSWKPNHKD | -0.632 ± 0.095
KRCPSCQAPIEKNEGCLHMTCAKCNHGFCWRDLKSWKPNHKD | -0.199 ± 0.11
KRCPSCQAPIEKNEGCLHMTCAKCNHGFCWRELKSWKPNHKD | -0.117 ± 0.094
KRCPSCQAPIEKNEGCLHMTCAKCNHGFCWRFLKSWKPNHKD | -0.744 ± 0.17
KRCPSCQAPIEKNEGCLHMTCAKCNHGFCWRGLKSWKPNHKD | -0.668 ± 0.081

Variant | abundance fitness
KRCPSCQAPIEKNEGCLHMTCAKCNHGFCWRHLKSWKPNHKD | -1.17 ± 0.22
KRCPSCQAPIEKNEGCLHMTCAKCNHGFCWRKLKSWKPNHKD | -0.677 ± 0.18
KRCPSCQAPIEKNEGCLHMTCAKCNHGFCWRLLKSWKPNHKD | -0.939 ± 0.11
KRCPSCQAPIEKNEGCLHMTCAKCNHGFCWRMLKSWKPNHKD | -0.545 ± 0.14
KRCPSCQAPIEKNEGCLHMTCAKCNHGFCWRNLKSWKPNHKD | -0.472 ± 0.18
KRCPSCQAPIEKNEGCLHMTCAKCNHGFCWRPLKSWKPNHKD | -0.959 ± 0.14
KRCPSCQAPIEKNEGCLHMTCAKCNHGFCWRQLKSWKPNHKD | -0.726 ± 0.12
KRCPSCQAPIEKNEGCLHMTCAKCNHGFCWRRLKSWKPNHKD | -0.894 ± 0.098
KRCPSCQAPIEKNEGCLHMTCAKCNHGFCWRSLKSWKPNHKD | -0.747 ± 0.1
KRCPSCQAPIEKNEGCLHMTCAKCNHGFCWRTLKSWKPNHKD | -0.485 ± 0.15
KRCPSCQAPIEKNEGCLHMTCAKCNHGFCWRVLKSWKPNHKD | -0.983 ± 0.12
KRCPSCQAPIEKNEGCLHMTCAKCNHGFCWRWLKSWKPNHKD | -0.744 ± 0.12
KRCPSCQAPIEKNEGCLHMTCAKCNHGFCWRCCKSWKPNHKD | -0.412 ± 0.13
KRCPSCQAPIEKNEGCLHMTCAKCNHGFCWRCDKSWKPNHKD | -0.235 ± 0.13
KRCPSCQAPIEKNEGCLHMTCAKCNHGFCWRCEKSWKPNHKD | 0.02 ± 0.098
KRCPSCQAPIEKNEGCLHMTCAKCNHGFCWRCFKSWKPNHKD | -0.451 ± 0.15
KRCPSCQAPIEKNEGCLHMTCAKCNHGFCWRCHKSWKPNHKD | -0.321 ± 0.2
KRCPSCQAPIEKNEGCLHMTCAKCNHGFCWRCIKSWKPNHKD | -0.501 ± 0.19
KRCPSCQAPIEKNEGCLHMTCAKCNHGFCWRCKKSWKPNHKD | -0.184 ± 0.16
KRCPSCQAPIEKNEGCLHMTCAKCNHGFCWRCMKSWKPNHKD | -0.096 ± 0.1
